Test system: Escherichia coli TOP10
Experiment: shrunken log2 fold change of peptide-encoding DNA abundance (4.5 h post-induction vs induction); higher = less antimicrobial activity (less host growth inhibition)
Conditions: time post-induction: 4.5 h; library: site-saturation at positions 5, 18, 19, 20
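Note: peptides expressed intracellularly from a pBAD plasmid library in pooled LB shake-flask culture, induced with 0.3% L-arabinose, DNA abundance read by NGS, three biological replicates, DESeq2 with apeglm shrinkage.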

Sequence	shrunken log2 fold change
RRIRVRPPRLPRPRPRPFGRPRP	0.0302
RRIRMRPPRLPRPRPRPTCAPRP	0.827
RRIRFRPPRLPRPRPRPDYTPRP	-0.02
RRIRTRPPRLPRPRPRPKYCPRP	-0.0743
RRIRTRPPRLPRPRPRPMPYPRP	-0.159
RRIRMRPPRLPRPRPRPQAHPRP	0.0821
RRIRTRPPRLPRPRPRPDIDPRP	0.0151
RRIRKRPPRLPRPRPRPLNAPRP	0.731
RRIRKRPPRLPRPRPRPGENPRP	0.318
RRIRSRPPRLPRPRPRPCCLPRP	-0.125
RRIRSRPPRLPRPRPRPPYAPRP	0.0164
RRIRNRPPRLPRPRPRPATNPRP	-0.0513
RRIRYRPPRLPRPRPRPPIRPRP	-0.121
RRIRDRPPRLPRPRPRPCRSPRP	-0.0116
RRIRVRPPRLPRPRPRPDVRPRP	-0.106
RRIRNRPPRLPRPRPRPDLRPRP	-0.105
RRIRVRPPRLPRPRPRPRCQPRP	0.0744
RRIRYRPPRLPRPRPRPLFHPRP	-0.818
RRIRKRPPRLPRPRPRPGFPPRP	0.419
RRIRARPPRLPRPRPRPVYSPRP	-0.312
RRIRGRPPRLPRPRPRPFRSPRP	-0.599
RRIRMRPPRLPRPRPRPRNMPRP	0.281
RRIRERPPRLPRPRPRPGSGPRP	0.101
RRIRRRPPRLPRPRPRPSQGPRP	0.0642
RRIRFRPPRLPRPRPRPDFHPRP	-0.287

Sequence	shrunken log2 fold change
RRIRDRPPRLPRPRPRPFHKPRP	-0.0864
RRIRIRPPRLPRPRPRPKECPRP	0.00902
RRIRCRPPRLPRPRPRPFTNPRP	-0.685
RRIRRRPPRLPRPRPRPIKVPRP	-0.186
RRIRIRPPRLPRPRPRPNWHPRP	-0.227
RRIRSRPPRLPRPRPRPSDIPRP	-0.516
RRIRTRPPRLPRPRPRPYHVPRP	-0.0196
RRIRWRPPRLPRPRPRPNDMPRP	0.199
RRIRGRPPRLPRPRPRPFEEPRP	0.231
RRIRARPPRLPRPRPRPTETPRP	1.11
RRIRIRPPRLPRPRPRPWDWPRP	0.0472
RRIRARPPRLPRPRPRPISTPRP	-0.295
RRIRWRPPRLPRPRPRPNIRPRP	-0.135
RRIRQRPPRLPRPRPRPACEPRP	-0.0795
RRIRQRPPRLPRPRPRPYKQPRP	0.0225
RRIRPRPPRLPRPRPRPIIAPRP	-0.681
RRIRSRPPRLPRPRPRPSIFPRP	-0.511
RRIRLRPPRLPRPRPRPCSSPRP	-0.157
RRIRIRPPRLPRPRPRPAKQPRP	0.0314
RRIRWRPPRLPRPRPRPCGMPRP	0.259
RRIRERPPRLPRPRPRPFHYPRP	-0.416
RRIRDRPPRLPRPRPRPPYWPRP	0.246
RRIRCRPPRLPRPRPRPLARPRP	0.0547
RRIRYRPPRLPRPRPRPKKHPRP	-0.646
RRIRDRPPRLPRPRPRPCIVPRP	-0.0549

Sequence	shrunken log2 fold change
RRIRGRPPRLPRPRPRPAVAPRP	0.813
RRIRTRPPRLPRPRPRPAEMPRP	-0.253
RRIRQRPPRLPRPRPRPVSKPRP	-0.014
RRIRTRPPRLPRPRPRPTTNPRP	-0.19
RRIRFRPPRLPRPRPRPCTMPRP	-0.462
RRIRNRPPRLPRPRPRPGEPPRP	0.033
RRIRIRPPRLPRPRPRPRKKPRP	0.247
RRIRVRPPRLPRPRPRPFGWPRP	0.372
RRIRCRPPRLPRPRPRPWGQPRP	-0.00973
RRIRIRPPRLPRPRPRPWTWPRP	-0.204
RRIRFRPPRLPRPRPRPRDEPRP	0.278
RRIRCRPPRLPRPRPRPDQHPRP	0.0432
RRIRCRPPRLPRPRPRPFLHPRP	-0.703
RRIRARPPRLPRPRPRPKGKPRP	1.12
RRIRTRPPRLPRPRPRPHRQPRP	-0.256
RRIRMRPPRLPRPRPRPESFPRP	0.0441
RRIRDRPPRLPRPRPRPHRTPRP	-0.0884
RRIRIRPPRLPRPRPRPRMGPRP	-0.192
RRIRVRPPRLPRPRPRPDVHPRP	-0.159
RRIRDRPPRLPRPRPRPVLAPRP	0.805
RRIRHRPPRLPRPRPRPAVQPRP	-0.0994
RRIRRRPPRLPRPRPRPGIRPRP	0.108
RRIRQRPPRLPRPRPRPSQLPRP	0.0128
RRIRYRPPRLPRPRPRPLLSPRP	-0.186
RRIRYRPPRLPRPRPRPHLLPRP	-0.515

Sequence	shrunken log2 fold change
RRIRVRPPRLPRPRPRPQSDPRP	-0.0819
RRIRCRPPRLPRPRPRPQLVPRP	0.569
RRIRPRPPRLPRPRPRPWTQPRP	-0.0236
RRIRQRPPRLPRPRPRPRWHPRP	0.197
RRIRIRPPRLPRPRPRPPKMPRP	-0.0476
RRIRHRPPRLPRPRPRPTYCPRP	-0.129
RRIRARPPRLPRPRPRPFRFPRP	0.0596
RRIRCRPPRLPRPRPRPHNHPRP	-0.625
RRIRCRPPRLPRPRPRPMKHPRP	-0.486
RRIRPRPPRLPRPRPRPTWNPRP	0.00306
RRIRARPPRLPRPRPRPEMPPRP	0.981
RRIRMRPPRLPRPRPRPMPIPRP	0.0625
RRIRFRPPRLPRPRPRPTEKPRP	-0.0949
RRIRERPPRLPRPRPRPKQNPRP	-0.073
RRIRERPPRLPRPRPRPMYLPRP	-1.99
RRIRCRPPRLPRPRPRPYHTPRP	-0.887
RRIRIRPPRLPRPRPRPHHYPRP	-0.429
RRIRVRPPRLPRPRPRPKWAPRP	0.269
RRIRLRPPRLPRPRPRPICDPRP	0.0695
RRIRYRPPRLPRPRPRPETMPRP	-0.062
RRIRCRPPRLPRPRPRPWNQPRP	-0.516
RRIRRRPPRLPRPRPRPRVEPRP	0.662
RRIRTRPPRLPRPRPRPRGMPRP	0.24
RRIRVRPPRLPRPRPRPKVKPRP	0.0531
RRIRARPPRLPRPRPRPAPRPRP	1.02

Sequence	shrunken log2 fold change
RRIRQRPPRLPRPRPRPSKCPRP	-0.719
RRIRQRPPRLPRPRPRPFARPRP	-0.0149
RRIRMRPPRLPRPRPRPQPAPRP	1.55
RRIRIRPPRLPRPRPRPASVPRP	-0.102
RRIRCRPPRLPRPRPRPPSSPRP	-0.0857
RRIRDRPPRLPRPRPRPEMTPRP	0.679
RRIRIRPPRLPRPRPRPNRTPRP	0.101
RRIRIRPPRLPRPRPRPSWPPRP	-0.227
RRIRNRPPRLPRPRPRPTLVPRP	-0.0435
RRIRNRPPRLPRPRPRPCNPPRP	-0.378
RRIRIRPPRLPRPRPRPEPNPRP	-0.0783
RRIRTRPPRLPRPRPRPKLKPRP	-0.0522
RRIRPRPPRLPRPRPRPWEPPRP	0.0548
RRIRMRPPRLPRPRPRPIHFPRP	-0.0141
RRIRYRPPRLPRPRPRPTLPPRP	-0.135
RRIRERPPRLPRPRPRPNRFPRP	0.0105
RRIRFRPPRLPRPRPRPFFMPRP	-0.153
RRIRFRPPRLPRPRPRPRRWPRP	0.934
RRIRMRPPRLPRPRPRPLLWPRP	0.914
RRIRIRPPRLPRPRPRPKDWPRP	0.299
RRIRERPPRLPRPRPRPISLPRP	-0.28
RRIRDRPPRLPRPRPRPNLVPRP	-0.0615
RRIRPRPPRLPRPRPRPHNHPRP	-0.609
RRIRSRPPRLPRPRPRPHEPPRP	-0.154
RRIRMRPPRLPRPRPRPCIHPRP	0.00462

Reference: the supplement of paper PMC9112550, “Optimization of the antimicrobial peptide Bac7 by deep mutational scanning” (BMC Biology, 2022)
